The results in this text go back to article doi:10.1101/2022.12.04.519012 (bioRxiv, 2022).

For the assay, the target named is DDB1 with N terminal Twin-Strep-FLAG (TSF) tag (human, UniProt Q16531 1-1140). Kind of assay: cryo-EM structure.
DDB1 with N terminal Twin-Strep-FLAG (TSF) tag, sequence (Q16531 whole entry): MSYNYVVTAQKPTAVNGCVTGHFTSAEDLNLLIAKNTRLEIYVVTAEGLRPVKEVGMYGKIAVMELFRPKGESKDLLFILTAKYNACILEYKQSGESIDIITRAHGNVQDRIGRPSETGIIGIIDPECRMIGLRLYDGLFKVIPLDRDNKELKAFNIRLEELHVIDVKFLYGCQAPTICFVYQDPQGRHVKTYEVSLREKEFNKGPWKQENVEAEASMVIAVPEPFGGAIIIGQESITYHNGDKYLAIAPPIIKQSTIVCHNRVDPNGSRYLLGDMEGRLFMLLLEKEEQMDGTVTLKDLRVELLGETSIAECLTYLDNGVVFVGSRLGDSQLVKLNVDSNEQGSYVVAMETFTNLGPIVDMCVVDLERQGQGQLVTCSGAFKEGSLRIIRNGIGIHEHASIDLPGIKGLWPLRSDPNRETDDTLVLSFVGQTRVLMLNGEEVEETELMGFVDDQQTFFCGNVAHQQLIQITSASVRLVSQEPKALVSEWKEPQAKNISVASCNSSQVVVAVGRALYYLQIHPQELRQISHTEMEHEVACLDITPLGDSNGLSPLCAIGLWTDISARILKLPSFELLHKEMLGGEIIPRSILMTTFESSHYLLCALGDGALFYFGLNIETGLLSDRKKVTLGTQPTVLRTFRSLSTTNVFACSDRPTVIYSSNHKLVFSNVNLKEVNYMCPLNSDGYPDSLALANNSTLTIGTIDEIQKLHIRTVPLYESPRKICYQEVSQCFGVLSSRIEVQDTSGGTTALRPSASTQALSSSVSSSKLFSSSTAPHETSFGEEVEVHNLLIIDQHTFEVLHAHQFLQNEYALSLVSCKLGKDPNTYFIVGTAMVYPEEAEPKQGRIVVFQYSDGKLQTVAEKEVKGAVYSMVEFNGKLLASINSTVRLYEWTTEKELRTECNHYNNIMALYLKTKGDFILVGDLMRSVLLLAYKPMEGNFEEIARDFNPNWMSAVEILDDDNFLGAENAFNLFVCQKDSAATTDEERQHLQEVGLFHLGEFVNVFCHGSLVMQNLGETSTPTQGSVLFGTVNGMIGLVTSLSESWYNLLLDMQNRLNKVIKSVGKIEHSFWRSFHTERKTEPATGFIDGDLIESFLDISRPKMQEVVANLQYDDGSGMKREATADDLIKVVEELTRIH

B1: AMBRA1^WD40 (residues 1-204 directly fused to residues 853-1044) (domain or fragment)
chain: MKVVPEKNAVRILWGRERGARAMGAQRLLQELVEDKTRWMKWEGKRVELPDSPRSTFLLAFSPDRTLLASTHVNHNIYITEVKTGKCVHSLIGHRRTPWCVTFHPTISGLIASGCLDGEVRIWDLHGGSESWFTDSNNAIASLAFHPTAQLLLIATANEIHFWDWSRREPFAVVKTASEMERVRLVRFDPLGHYLLTAIVNPSNSNIANTTYRLQWWDFTKFDLPEISNASVNVLVQNCKIYNDASCDISADGQLLAAFIPSSQRGFPDEGILAVYSLAPHNLGEMLYTKRFGPNAISVSLSPMGRYVMVGLASRRILLHPSTEHMVAQVFRLQQAHGGETSMRRVFNVLYPMPADQRRHVSINSARWLPEPGLGLAYGTNKGDLVICRPEALNSG
B1: the binding result is “binds”.
